# In IntAct's records for PubMed 24879152:
# B1: Next to BRCA1 gene 1 protein (Homo sapiens), Q14596 (parent)
# chain: MEPQVTLNVTFKNEIQSFLVSDPENTTWADIEAMVKVSFDLNTIQIKYLDEENEEVSINSQGEYEEALKMAVKQGNQLQMQVHEGHHVVDEAPPPVVGAKRLAARAGKKPLAHYSSLVRVLGSDMKTPEDPAVQSFPLVPCDTDQPQDKPPDWFTSYLETFREQVVNETVEKLEQKLHEKLVLQNPSLGSCPSEVSMPTSEETLFLPENQFSWHIACNNCQRRIVGVRYQCSLCPSYNICEDCEAGPYGHDTNHVLLKLRRPVVGSSEPFCHSKYSTPRLPAALEQVRLQKQVDKNFLKAEKQRLRAEKKQRKAEVKELKKQLKLHRKIHLWNSIHGLQSPKSPLGRPESLLQSNTLMLPLQPCTSVMPMLSAAFVDENLPDGTHLQPGTKFIKHWRMKNTGNVKWSADTKLKFMWGNLTLASTEKKDVLVPCLKAGHVGVVSVEFIAPALEGTYTSHWRLSHKGQQFGPRVWCSIIVDPFPSEESPDNIEKGMISSSKTDDLTCQQEETFLLAKEERQLGEVTEQTEGTAACIPQKAKNVASERELYIPSVDLLTAQDLLSFELLDINIVQELERVPHNTPVDVTPCMSPLPHDSPLIEKPGLGQIEEENEGAGFKALPDSMVSVKRKAENIASVEEAEEDLSGTQFVCETVIRSLTLDAAPDHNPPCRQKSLQMTFALPEGPLGNEKEEIIHIAEEEAVMEEEEDEEDEEEEDELKDEVQSQSSASSEDYIIILPECFDTSRPLGDSMYSSALSQPGLERGAEGKPGVEAGQEPAEAGERLPGGENQPQEHSISDILTTSQTLETVPLIPEVVELPPSLPRSSPCVHHHGSPGVDLPVTIPEVSSVPDQIRGEPRGSSGLVNSRQKSYDHSRHHHGSSIAGGLVKGALSVAASAYKALFAGPPVTAQPIISEDQTAALMAHLFEMGFCDRQLNLRLLKKHNYNILQVVTELLQLNNNDWYSQRY
# B2: Glycogen synthase kinase-3 alpha (Homo sapiens), P49840 (parent)
# chain: MSGGGPSGGGPGGSGRARTSSFAEPGGGGGGGGGGPGGSASGPGGTGGGKASVGAMGGGVGASSSGGGPGGSGGGGSGGPGAGTSFPPPGVKLGRDSGKVTTVVATLGQGPERSQEVAYTDIKVIGNGSFGVVYQARLAETRELVAIKKVLQDKRFKNRELQIMRKLDHCNIVRLRYFFYSSGEKKDELYLNLVLEYVPETVYRVARHFTKAKLTIPILYVKVYMYQLFRSLAYIHSQGVCHRDIKPQNLLVDPDTAVLKLCDFGSAKQLVRGEPNVSYICSRYYRAPELIFGATDYTSSIDVWSAGCVLAELLLGQPIFPGDSGVDQLVEIIKVLGTPTREQIREMNPNYTEFKFPQIKAHPWTKVFKSRTPPEAIALCSSLLEYTPSSRLSPLEACAHSFFDELRCLGTQLPNNRPLPPLFNFSAGELSIQPSLNAILIPPHLRSPAGTTTLTPSSQALTETPTSSDWQSTDATPTLTNSS
# partner: B1 chain
# Variants of: B1
# Settings: with gsk3a_human GSK3A
row,Variant,effect of a mutation on the interaction
1,T581A,decreasing interaction strength
2,T581A;T586A;S590A,decreasing interaction strength
3,S590A,with no effect

# Next, values leading:
row,effect of a mutation on the interaction,Variant
1,with no effect,T586A
2,with no effect,T586A;S590A

# Variants of: B1
# Settings: with gsk3b_human GSK3B
row,effect of a mutation on the interaction,Variant
1,with no effect,T581A
2,disrupting interaction strength,T581A;T586A;S590A

# Variants of: B1
# Settings: with ubc_human UBC
row,effect of a mutation on the interaction,Variant
1,with no effect,T586E;S590E
2,with no effect,T586A;S590A

# Variants of: B1
# Settings: with mlp3b_human MAP1LC3B
row,effect of a mutation on the interaction,Variant
1,with no effect,T586E;S590E
2,with no effect,T586A;S590A

# Variants of: B1
# Settings: with gbrap_human GABARAP
row,effect of a mutation on the interaction,Variant
1,with no effect,T586E;S590E
2,with no effect,T586A;S590A

# Variants of: B1
# Settings: with mlp3b_mouse Map1lc3b
row,effect of a mutation on the interaction,Variant
1,with no effect,T586E;S590E
2,with no effect,T586A;S590A

# Variants of: B2
# Settings: with nbr1_human NBR1, Q14596
row,effect of a mutation on the interaction,Variant
1,disrupting interaction strength,K148A
2,with no effect,S21A
